For experiment [1], the system named is polarized colon cancer T84 cells. The experiment in a line: Transepithelial electrical resistance (TEER) on polarized T84 cells. It counts as cell-based. Conditions: for Effect on the TEER: added for 1 hour to the apical side of transwell cultures. Here is the method: FIG. 5A-5B. Correlation of reduced DSG2 binding with the ability to open epithelial junctions. FIG. 5A) Transepithelial electrical resistance (TEER) measured on polarized colon cancer T84 cells. Cells were cultured in transwell chambers until the TEER was constant, i.e. tight junctions had formed. A total of 5 μg of dimeric Ad3 fiber knobs in PBS was then added for 1 hour to the apical chamber. TEER was measured at the indicated time points. N=6. For time points 1.5 and 4 hours the difference between JO-1 vs D261N and N186D was significant (p<0.01). The arrows indicate the addition and removal of Ad3 fiber knobs. FIG. 5B) Enhancement of irinotecan therapy. A total of 4×10^6 A549 cells were injected subcutaneously into CB17-SCID/beige mice. Once the tumor reached a volume of ˜100 mm^3 (day 15 after implantation), the mice were injected intravenously with 2 mg/kg JO-1, E299V, N186D, or PBS, followed by an intravenous injection of irinotecan (37.5 mg/kg) one hour later. The treatment was repeated on day 25. N=5. […] The difference between “irinotecan” vs “JO-1+irinotecan” was significant (p<0.01) from day 20 on.
FIG. 9A1-9C. Analysis of dimeric Ad3 fiber knob mutants with increased affinity to DSG2. FIG. 9A1-9A2) Competition of Ad3-GFP virus infection on HeLa cells with dimeric affinity-enhanced mutant Y250F and JO-1 (dimeric wt Ad3 fiber knob). The experimental setting is as described for FIG. 3C. FIG. 9A1) percentage of GFP positive cells. FIG. 9A2) mean fluorescence intensity. N=3. The standard deviation was less than 10%. FIG. 9B1-9B2) Competition of Ad3-GFP virus infection on HeLa cells by Ad3 knob mutants with enhanced DSG2 binding but without dimerization domain. 1.5×10^5 HeLa cells were seeded into 24 well plates. Cells were incubated with the Ad3 knob mutants at the increasing concentrations for one hour at room temperature. 100 pfu/cell of Ad3GFP virus were then added and GFP expression was analyzed 18 hours later. FIG. 9B1) % of GFP+cells; FIG. 9B2) MFI. FIG. 9C) TEER on colon cancer T84 cells. The experimental setting was the same as for FIG. 5A. The TEER at 4 hours is shown. N=3.
Permeability assay. A total of 5×10^5 T84 cells were seeded in 12 mm transwell inserts (PET membrane, with 0.4 μm pore size (Corning, NY) and cultured for >14 days until transepithelial electrical resistance (TEER) was stable. Culture medium was changed every 2-3 days. The cells were exposed to DSG2 ligands (20 μg/ml) in adhesion medium (DMEM, 1% FBS, 2 mM MgCl2, 20 mM HEPES) for 15 min at room temperature and TEER was measured and calculated as described elsewhere (39).

The next experiment relates to ovc316 xenograft tumors. As to the kind of experiment: Enhancement of PLD therapy in ovc316 ovarian cancer xenograft tumors. It counts as in vivo, CB17 mice. The conditions noted are these: weekly. As to the method:
FIG. 10A-10C. Combination of affinity-enhanced JO-1 versions with chemotherapy. FIG. 10A) Enhancement of irinotecan (I) therapy. The experimental setting was the same as in FIG. 5B. […] N=5. […] Mammary fat pad tumors were established from primary ovarian cancer ovc316 cells. Treatment was started when tumors reached a volume of 100 mm^3. Mice were injected intravenously with 2 mg/kg JO-1 or with 0.5 mg/kg JO-4, followed by an intravenous injection of PEGylated liposomal doxorubicin (PLD) (1 mg/kg) one hour later. Treatment was repeated weekly. […] A total of 4×10^6 TNBC MDA-MB-231 cells were injected into the mammary fat pad of CB17 SCID-beige mice. JO-4 (2 mg/kg) was intravenously injected 1 hour before the application of cetuximab (C) (10 mg/kg, i.p.) and nab-paclitaxel (nab-P) (5 mg/kg, i.v.). Treatment was given weekly. N=10 P<0.01 at day 25 for nab-P+C vs JO-4+nab-P+C.
A549, MDA-MB-231, and ovc316 xenograft tumors were established by injection of the corresponding tumor cells into the mammary fat pad (1:1 with Matrigel) of CB17 mice. TC1-DSG2 tumors were established by subcutaneous injection of TC1-DSG2 cells into DSG2 transgenic mice. […] Tumor volumes were measured three times a week. […]

Results on 3 molecules are retold here after patent publication US12466859B2, “Desmoglein 2 (DSG2) binding proteins and uses therefor” (UNIVERSITY OF WASHINGTON THROUGH ITS CENTER FOR …, priority 2013, dated 2025).

Changes are numbered by the printed parent chain. Numbers in names are those of the source.

B1: D261N (protein)
chain: MKVSALKEKVSALKEKVSALKEKVSALKEKVSALKEGSGGGSGGGSGGGSNSIALKNNTLWTGPKPEANCIIEYGKQNPDSKLTLILVKNGGIVNGYVTLMGASDYVNTLFKNKNVSINVELYFDATGHILPDSSSLKTDLELKYKQTADFSARGFMPSTTAYPFVLPNAGTHNENYIFGQCYYKASNGALFPLEVTVMLNKRLPDSRTSYVMTFLWSLNAGLAPETTQATLITSPFTFSYIREDD
Turning to B1, the “Effect on the TEER” value in experiment [1] was “no effect”.

B2: JO-1: dimeric protein that contains the wild-type Ad3 fiber knob and a self-dimerization domain (SEQ ID NO:27) (protein, listed as Homo sapiens)
chain: B1 chain with N188D
modifications: dimer
Turning to B2, in the experiment with ovc316 xenograft tumors (2 mg/kg i.v. one hour before PLD 1 mg/kg), the “Enhancement of PLD therapy” value is “significantly increased the treatment efficiency”. The “Effect on the TEER” value in experiment [1] is “rapid decrease in the TEER”.

B3: JO-4 (protein)
chain: B1 chain with Y177F, N188D
With B3, the “Enhancement of PLD therapy” value in the experiment on ovc316 xenograft tumors (0.5 mg/kg i.v. one hour before PLD 1 mg/kg) is “enhances PLD therapy”. Besides, the “TEER compared to JO-1” value in experiment [1] (dimeric affinity-enhanced mutants, TEER at 4 hours) is “significantly higher”.
